Data as given in patent US20230348578A1, “CONFORMATION-SPECIFIC ANTIBODIES THAT BIND TAU PROTEIN AND USES THEREOF” (Beth Israel Deaconess Medical Center, Inc., priority 2020, published 2023).
Numbering of substitutions follows the chain as printed.

B1: Cis-mAb HT18 (humanized) (antibody, V domains shown)
VH: QVQLVQSGAEVKKPGSSVKVSCKASGYTFTSYWIHWVRQAPGQGLEWMGVIDPSDSYTRYNQKFKGRVTITRDTSMSTAYTELSSLRSEDTAVYYCTTWEVDYWGQGTLVTVSS
VL: DIQMTQSPSTLSASVGDRVTITCRSSQSLVHSDGNTYLHWYQQKPGKAPKLLIYKVSNRFSGVPSRFSGSGSGTEFTLTISSLQPDDFATYYCSQSTHVPWTFGQGTKLEIK
B2: Cis-mAb HT13 (mouse-human chimera, control) (antibody, V domains shown)
VH: QVQLQQPGAELVKPGASVKMSCKASGYTFTSYWIHWVKQRPGQGLEWIGVIDPSDSYTRYNQKFKGKATLTVDTSSSTAYMQLSSLTSEDSAVYYCTTWEVDYWGQGTTLTVSS
VL: DVVMTQTPLSLPVSLGDQASISCRSSQSLVHSDGNTYLHWYLQKPGQSPKLLIYKVSNRFSGVPDRFSGSGSGTDFTLKISRLEAEDLGVYFCSQSTHVPWTFGGGTKLEIK
B3: Cis-mAb HT2 (humanized) (antibody, V domains shown)
VH: B1 VH with S16A, V20M, R38K, A40R, M48I, V68A, I70L, R72V, M76A, T81M
VL: B2 VL with T7S, S14T, D17Q, Q18P, K50Q, L83V, L88V, L109V
B4: Cis-mAb HT8 (humanized) (antibody, V domains shown)
VH: B1 VH with S16A, A40R, M48I, M76A, T81M
VL: B2 VL with T7S, S14T, D17Q, Q18P, K50Q, F60D, L83V, L88V, L109V
B5: Cis-mAb HT7 (humanized) (antibody, V domains shown)
VH: B1 VH with S16A, A40R, M48I, I70L, R72V, M76A, T81M
VL: B2 VL with T7S, S14T, D17Q, Q18P, K50Q, F60D, L83V, L88V, L109V
B6: Cis-mAb HT12 (humanized) (antibody, V domains shown)
VH: B1 VH with S16A, A40R, M48I, M76A, T81M
VL: B2 VL with T7S, S14T, D17Q, Q18P, K50Q, L83V, L88V, F92Y, L109V
B7: Cis-mAb HT9 (humanized) (antibody, V domains shown)
VH: B2 VH with Q5V, P7S, V12K, K67R, S76A, L110V
VL: B2 VL with T7S, S14T, D17Q, Q18P, K50Q, L83V, L88V, F92Y, L109V
B8: Cis-mAb HT5 (humanized) (antibody, V domains shown)
VH: B2 VH with Q5V, P7S, V12K, K67R, S76A, L110V
VL: B2 VL with T7S, S14T, D17Q, Q18P, K50Q, F60D, L83V, L88V, L109V
B9: Cis-mAb HT17 (humanized) (antibody, V domains shown)
VH: B1 VH with S16A, A40R, M48I, M76A, T81M
VL: B2 VL with T7S, S14T, D17Q, Q18P, H39N, K50Q, L83V, L88V, L109V
B10: Cis-mAb HT1 (humanized) (antibody, V domains shown)
VH: B2 VH with Q5V, P7S, V12K, K67R, S76A, L110V
VL: B2 VL with T7S, S14T, D17Q, Q18P, K50Q, L83V, L88V, L109V
B11: Cis-mAb HT10 (humanized) (antibody, V domains shown)
VH: B1 VH with S16A, V20M, R38K, A40R, M48I, V68A, I70L, R72V, M76A, T81M
VL: B2 VL with T7S, S14T, D17Q, Q18P, K50Q, L83V, L88V, F92Y, L109V
B12: Cis-mAb HT6 (humanized) (antibody, V domains shown)
VH: B1 VH with S16A, V20M, R38K, A40R, M48I, V68A, I70L, R72V, M76A, T81M
VL: B2 VL with T7S, S14T, D17Q, Q18P, K50Q, F60D, L83V, L88V, L109V
B13: Cis-mAb HT15 (humanized) (antibody, V domains shown)
VH: B1 VH with S16A, V20M, R38K, A40R, M48I, V68A, I70L, R72V, M76A, T81M
VL: B2 VL with T7S, S14T, D17Q, Q18P, H39N, K50Q, L83V, L88V, L109V
B14: Cis-mAb HT14 (humanized) (antibody, V domains shown)
VH: B2 VH with Q5V, P7S, V12K, K67R, S76A, L110V
VL: B2 VL with T7S, S14T, D17Q, Q18P, H39N, K50Q, L83V, L88V, L109V
B15: Cis-mAb HT16 (humanized) (antibody, V domains shown)
VH: B1 VH with S16A, A40R, M48I, I70L, R72V, M76A, T81M
VL: B2 VL with T7S, S14T, D17Q, Q18P, H39N, K50Q, L83V, L88V, L109V
B16: Cis-mAb HT11 (humanized) (antibody, V domains shown)
VH: B1 VH with S16A, A40R, M48I, I70L, R72V, M76A, T81M
VL: B2 VL with T7S, S14T, D17Q, Q18P, K50Q, L83V, L88V, F92Y, L109V
B17: Cis-mAb HT4 (humanized) (antibody, V domains shown)
VH: B1 VH with S16A, A40R, M48I, M76A, T81M
VL: B2 VL with T7S, S14T, D17Q, Q18P, K50Q, L83V, L88V, L109V
B18: Cis-mAb HT3 (humanized) (antibody, V domains shown)
VH: B1 VH with S16A, A40R, M48I, I70L, R72V, M76A, T81M
VL: B2 VL with T7S, S14T, D17Q, Q18P, K50Q, L83V, L88V, L109V

Each binder was assayed against P-tau peptide (wild-type P-tau peptide and its pure cis or cis-locked, and pure trans counterparts) (assay: Biacore (SPR) with P-tau peptide).

Binder | Kd | Relative KD
B1 | 1.91 nM | 1.52 fold of HT13
B2 | 1.26 nM | 1 fold of HT13
B3 | 1.62 nM | 1.29 fold of HT13
B4 | 7.68 nM | 6.11 fold of HT13
B5 | 10.8 nM | 8.57 fold of HT13
B6 | 3.55 nM | 2.82 fold of HT13
B7 | 1.89 nM | 1.5 fold of HT13
B8 | 6.91 nM | 5.48 fold of HT13
B9 | 4940 nM | 3920 fold of HT13
B10 | 1.83 nM | 1.45 fold of HT13
B11 | 1.77 nM | 1.4 fold of HT13
B12 | 6.48 nM | 5.14 fold of HT13
B13 | 33.4 nM | 26.5 fold of HT13
B14 | 30.2 nM | 24 fold of HT13
B15 | 3.26 nM | 2.59 fold of HT13
B16 | 3.99 nM | 3.17 fold of HT13
B17 | 2.42 nM | 1.92 fold of HT13
B18 | 3.51 nM | 2.79 fold of HT13
